From the domain aggregation screens of Martell et al. (2025)

Assay: soluble fraction after stress (log2 fold change); higher = more stays soluble; pooled small domains, quantitative proteomics
Settings: stress: 75 degC
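Note: 20 min heating vs room temperature control held 20 min.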

Row | Sequence | soluble fraction (log2)
1 | HMFPSLSPEEQAVVDVLQRNNDLQINMLSVQSGLTISRLTALLFQLEMKGVIKPLAGGMYHLL | -0.711
2 | HMFPTLSPEEQRIVDQLAKENDLQANVIALRTALTIPQISALLFSLEMKGMVRLYAGGTYHLI | -4.6
3 | HMFQPEQISKLNELETLVLDFIIKSPDKVQKATIRSLATQLHVSTTTIVRMSTKLGFNGWSELKFFLKNQS | -1.93
4 | HMFRDFSETLLRKLQAAGGFLPFTDKTDAEAIAEHFQVSKKTFKRAVGTLYKQRRILIDDEGITLIG | -1.59
5 | HMFRPDYYEILQVDRHASPEVITAAYRQLLSIYNSEQDGNKQMIKLIQEAYGVLGDSQDRWLYDSWLDNN | -1.34
6 | HMFRSNAERAAHLASALPRAEAELAALQARGAATSENIYLRSSYFDALRYTEELRAAKRAQDALQGA | 0.195
7 | HMFSAASSQISSYVRSVVDKAQTYEQAYEILAKNPLGFKLDALEDELFRIIANAEILGADDDE | -0.976
8 | HMFSNATISGLKAGALVRVYNISGVAVSTLTADAEGKVSVDLNNLPKGVYILSTPSKSFKVLN | -2.65
9 | HMFSWRQHLDHFGFSDEIKKRLADAVFLNDDWNEIDRGVLTKEELLARFIENDPGIEKEIYMVMENIN | -0.835
10 | HMFYPIAHTLTKLNIRSGPGEQYQKLATFENNHDLVVLTQQNEWVQVRGKSDEQVIIGWVHSSFLSPT | -2.8
11 | HMFYQLTENQRRILSSLEQNPRVSAAHLAEEIGISSRKVENNLKKLKEIGLLQRHGSPRKGYWSINQGW | -0.938
12 | HMGAAAQLLHAVVLRVPAEDTMKFVSETPELRRYLGAPLGPTAALVRPGQEQELAAALQAHGILVEFDE | -0.45
13 | HMGAAITEAEAKQIALDHAGVSESETERMRVKLGRDDGVQEYEVNFYVGNREYDYDINAATGEIRSHDSE | 0.107
14 | HMGADPTTWPEIDAFVGRVAVTATGLFPSGQVEIDGRRFEARLAFGVAEPGARVVVRRRTDFGLLVEKETR | -2.38
15 | HMGADRLVGMTAIVTATIDPNDTDRKGRVQVEGEVWSALSDGRLIITEGSKVRITEMHGTRVRVEAI | -0.685
16 | HMGAEWTEMRVWTSTSGSKVTAEASSLTNGQVTLETKSGKRITLSIRKLVEADQKFLEAHFSK | -1.33
17 | HMGAGLLEPEPLKIEIQETQERLQKLQKALERDTETADSKERIKRAIEAHKARISQLQGLIE | 0.219
18 | HMGAKVFTVPNLIGKYAIEAGIILKKEGLSEGEVKEENSDKYAAGQIIDQYPAADSPAKENDKINYVVSIG | -0.066
19 | HMGANSAYMAMRDRIQQRLLAELSPGVTRSDTAEVRRVVERIFNETTAELGLPLSRLERNDIFDLVLADIL | -1.85
20 | HMGAPLAVGDSVRVVVSGPRAFVYTAPNGALSGAVRNGAAFTVLELSPDNTWARIGSGEWIKVEFLATG | -0.919
21 | HMGATYSQFLDQVDGGNVQKVTFSGDMRSGTNQISYTTRSGQSATITAPMDRDLINILRAKNVEIVQEEP | 0.232
22 | HMGAWQQTGFFRNRENAESLAEVLRQRGFSPVVREDTRPSGTVYYAVLVPDDGTTAARLKDAGIDSYPV | 0.121
23 | HMGDDYFTILGIERDATTDEIRSAYRRLSKKIHPDAQGSSALFRQVQEAYETLIDPSSRARYVAELNASQG | 0.00161
24 | HMGDERDRLLLARGKRIYQELIGSDRENVAAALREFEAVLAVNNRRAIHVMRQRLAELFGVYEEFLNEEFL | -4.51
25 | HMGDEVAVTEILVKVGDTVEADQSLLTVEGDKASMEVPAPFAGVVKAIQVQLGDKVVTGSPIMLFEV | 0.073
26 | HMGDFNYVMPDFRGLEAHDVSSFLNRNGFLLRPTEHEVSFTQRPGLILMHYPEPGYPFSRSSPITLVVS | -0.947
27 | HMGDGMEVWVNGSPVNLTGKDSFIFVDIFDFIDFDLTASKGRLIVIKVNGEYAEYTRPLHNGDTIEIYWEE | 0.0346
28 | HMGDGRVGVITASIAYEYAKEVFPEGTSFLKLGLTFPLPMDLIRDFASKVEKLYVIEELEPL | -0.122

Row | Sequence | soluble fraction (log2)
29 | HMGDHYTALGLSIDATPEEIRSAYFLAARRSHPDANPDAQTTEWFLRVQEAYDILSNPRRRAEYDASLP | -0.6
30 | HMGDKRPIAVGDYVKLEGQDTPGQVLSISGKNATVGFGMLKTTVKLDRLRHTMAKPQTGASAGVR | -0.293
31 | HMGDKVTIPNLIDMKLTDAQNQYKPQGFSIVKNGERESDKEAGTILEQDKAAGTEISGKDIRIFVVVSSGS | 0.0688
32 | HMGDLAAAGNHTLEVMGFPQHPDESYRHFVGNGIPKLIERMLPAGHDKETEQKAYDIFMEYYSAHK | 0.609
33 | HMGDPMAIMQLSSNTTPEYWEAYQKYHIQEYEQSNFIRYVNGISVLDDDFVDKVLITIDQHGRIFSELKS | -3.21
34 | HMGDSEMPVSEVVRLAKLDQISSIEISGTKLTIITNNLETYTSRIEENSTIIEILQRAGVDIGGLEIYPHG | -1.53
35 | HMGDVSGFLRGVLADGPVPAKTVFSEASGAGYSRDQIQRAARKIGVERRKTGMAGGWVWELEP | -0.148
36 | HMGEAYVVPNVKNKTLGEAQLALHNQKLEGLVVDSSYVKGLPDGMILDQNPAGGARVKEGRTIYLTITTS | -0.0978
37 | HMGEDFPYVAYATDSVRLRSKPSSSGDILAVIRQGDAVLITGSDGNYKIVEYEGRKGYVISAFLSQTP | -1.15
38 | HMGEDLTIDQLAAEVDMTVRNIRAHQARGLLPPPTIKGRIGYYGPLHRRRLQQIRAMQEEGLNLAAIAKVV | -0.889
39 | HMGEDPYQMLGLTRQASDEEVRLAWRKLMRENHPDSLASRGVPQEFVKRATEQVAQINAAWDRIKRERG | -0.25
40 | HMGEELIEIQNLRNKERREAEAILKNLDLVPVIQEQFDDTVPINRVITTDPGPDSTVKKGTTVMIYVSKGP | 0.415
41 | HMGEENLKYPLLTDGSVKTTVLEAIDKDEKWLREELAKQGYDDLSKLFLVDYLGGQLVVTPY | 0.144
42 | HMGEESIAELISNPKLSDAKRTVILDLLSRGLTVDQIKPYIQSDDPYTAEQLQFELYKLFFTQI | -0.578
43 | HMGEGRVRLAQEAANRFMTAMAGDRPGFEEAGRALFAGDRARFHAETEGWPEDIRDHARRLAEPALQ | 0.144
44 | HMGEIILVPDVKAQGVSDARYTLNQAGLDAVIADSSYNRNSPPGAVLEQMPAPGSKVKSGHAIYLIINTT | 0.138
45 | HMGELTSILVATKQIEPGETLSSSNTQVKSWISDLIPEGAITNPESVMGRTVSSVIGVGMPVVSLHLR | 0.462
46 | HMGELVIPPLRERTVVDAVAEAERLGFVVQVEPVASSLPEGRVLGQSPEPGTRARKSQVVVLQVSRG | -0.614
47 | HMGEPLTVVAAAGGDRLDRWLAGQLAGRSRAEIQRWIEAGQVTLAGRSLKASYRLSAGDAIDVAIPPPE | -0.366
48 | HMGEPVEIEEPITVRSLSEALGLKSSAIISHLMRQGVFATINQNLDKETAELIAAEYGIELRIK | -0.0834
49 | HMGETDDDFRELEEFVEKTKFDKLGTFMYSKEEGTPAARLPEQIHGNTKKSRYNKIMSIQQKVSNEN | 0.253
50 | HMGETPEILRDWEAAQNAVNDMLSKYAPGGYMGKIIYPLLTPLKERLEAGERTPDLYNAIVEAT | 0.119
51 | HMGETYTIPDVRGYTLEDAMELPEIKENGFTIIEGRQIVDADVPVGQIISQTPEAESIAKSNVKEITVNIS | 0.239
52 | HMGEVPVETKDGIKVHVHTVDKSQTAYGISRLYNITLNELYESNPEAKLELSIGQKLYFPVK | -0.199
53 | HMGEVVRAPMPGNVLKMEVAQGQEVEEGDLLLVLEAMKMENDIVAPKGGIVIQLVVDKGMVVETDDPLVVI | -0.339
54 | HMGEWNSVFSVPSSVVDKHLKTASSVYVKVLLVILRNAGNRISDQQISEQLSVPVDEVQEAIRYWNAAGIF | -2.76
55 | HMGFAANLSRLMEYHNISMYRLAKEVGVHQTTVKNWLEEESEPKIAALEKIVGLLGVSYDELLG | -4.58
